The record followed here is patent publication US20230279138A1 (CHIA TAI TIANQING PHARMACEUTICAL GROUP, published 2023).

For assay [1], the target named is T1, CD3 on Jurkat cells (CD3+/CD20- cells) (human, UniProt P07766 23-207; P04234 22-171; P09693 23-182). Put plainly: cell-based or functional assay.
Assay [2] has as its target T2, CD20 on Raji cells (CD20+/CD3- cells) (human, UniProt P11836 1-297).
T2 sequence (looked up): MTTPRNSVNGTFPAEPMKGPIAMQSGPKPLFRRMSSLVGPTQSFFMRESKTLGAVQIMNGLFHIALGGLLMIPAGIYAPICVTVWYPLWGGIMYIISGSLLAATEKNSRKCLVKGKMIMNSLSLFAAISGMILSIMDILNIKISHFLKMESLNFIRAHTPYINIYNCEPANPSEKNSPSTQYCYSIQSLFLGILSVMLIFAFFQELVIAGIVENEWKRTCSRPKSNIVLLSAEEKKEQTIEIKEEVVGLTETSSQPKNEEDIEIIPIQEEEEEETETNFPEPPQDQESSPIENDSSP
Put plainly: cell-based or functional assay.

In assay [3] the target is T1, CD3 on Jurkat cells (CD3+/CD20- cells). Put plainly: flow cytometry on Jurkat 2B8 cells (CD3+/CD20-). The protocol:
(§1) After incubation, the cells were washed twice with cold 1% BSA/1×PBS. […] After being washed twice, the geometric mean fluorescence (MFI) of the stained cells was measured using a FACS Canto II […] (BD Biosciences). Wells containing no antibody or containing only fluorescent secondary antibody were used to establish background fluorescence. The EC50 values for cell binding were determined using GraphPad Prism 5 software (GraphPad Software, La Jolla, Calif.); each value was calculated by four-parameter non-linear regression analysis.
(In general: In flow cytometry, cells or beads pass a laser one at a time.)

Assay [4] deals with T2, CD20 on Raji cells (CD20+/CD3- cells). Put plainly: cell-based or functional assay. This is another data set of the same source.
Assay [5] shares this target. Put plainly: FACS on Raji cells after 14 days at 37 C in human serum. The protocol: as §1
(§2) The antibody was mixed with freshly collected human serum and the proportion of serum in the mixture sample was ensured to be >95%. The mixture sample was aliquoted and incubated at 37° C. for 0-14 days. […] The bindings of each sample to Raji or Jurkat cells was analyzed by FACS.

Assay [6] has the same target. Put plainly: cell-based or functional assay. This is another data set of the same source.
Assay [7] has the same target. Put plainly: FACS on Raji cells after 0, 1, 4 or 7 days at 37 C in human serum. Here is the method:
as §1, §2

Assay [8] has the same target. Put plainly: flow cytometry on Raji cells (CD20+/CD3-). The protocol:
as §1

Assay [9] shares this target. Put plainly: cell-based or functional assay. The source holds these as a separate data set.

T1 sequence (P07766 23-207, chain 1 of 3): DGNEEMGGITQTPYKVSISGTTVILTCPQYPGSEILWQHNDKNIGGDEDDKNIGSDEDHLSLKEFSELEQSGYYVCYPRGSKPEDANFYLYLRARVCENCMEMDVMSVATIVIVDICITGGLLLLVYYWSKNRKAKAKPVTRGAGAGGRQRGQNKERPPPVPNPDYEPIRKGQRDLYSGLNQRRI
T1 sequence (P04234 22-171, chain 2 of 3): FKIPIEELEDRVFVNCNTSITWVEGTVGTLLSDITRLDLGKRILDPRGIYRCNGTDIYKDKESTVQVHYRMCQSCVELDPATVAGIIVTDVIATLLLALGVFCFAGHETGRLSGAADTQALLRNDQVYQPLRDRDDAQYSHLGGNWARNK
T1 sequence (P09693 23-182, chain 3 of 3): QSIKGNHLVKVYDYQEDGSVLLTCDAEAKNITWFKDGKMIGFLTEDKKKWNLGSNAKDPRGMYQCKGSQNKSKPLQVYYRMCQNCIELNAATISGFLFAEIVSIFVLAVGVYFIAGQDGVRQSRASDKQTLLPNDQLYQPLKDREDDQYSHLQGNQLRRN

B1: W3278-U2T3.F18R-1.uIgG4.SP (bispecific antibody)
heavy 1: QVQLQQPGAELVKPGASVKMSCKASGYTFTSYNMHWVKQTPGRGLEWIGAIYPGNGDTSYNQKFKGKATLTADKSSSTAYMQLSSLTSEDSAVYYCARSTYYGGDWYFNVWGAGTTVTVSAASTKGPSVFPLAPCSRSTSESTAALGCLVKDYFPEPVTVSWNSGALTSGVHTFPAVLQSSGLYSLSSVVTVPSSSLGTKTYTCNVDHKPSNTKVDKRVGGGGSGGGGSQVQLVQSGAEVKKPGSSVKVSCKASGFAFTDYYIHWVRQAPGQGLEWMGWISPGNVNTKYNENFKGRVTITADKSTSTAYMELSSLRSEDTAVYYCARDGYSLYYFDYWGQGTLVTVLEDLKNVFPPEVAVFEPSEAEISHTQKATLVCLATGFYPDHVELSWWVNGKEVHSGVCTDPQPLKEQPALQDSRYALSSRLRVSATFWQNPRNHFRCQVQFYGLSENDEWTQDRAKPVTQIVSAEAWGRYGPPCPPCPAPEFLGGPSVFLFPPKPKDTLMISRTPEVTCVVVDVSQEDPEVQFNWYVDGVEVHNAKTKPREEQFNSTYRVVSVLTVLHQDWLNGKEYKCKVSNKGLPSSIEKTISKAKGQPREPQVYTLPPCQEEMTKNQVSLWCLVKGFYPSDIAVEWESNGQPENNYKTTPPVLDSDGSFFLYSRLTVDKSRWQEGNVFSCSVMHEALHNHYTQKSLSLSLG
heavy 2: QVQLQQPGAELVKPGASVKMSCKASGYTFTSYNMHWVKQTPGRGLEWIGAIYPGNGDTSYNQKFKGKATLTADKSSSTAYMQLSSLTSEDSAVYYCARSTYYGGDWYFNVWGAGTTVTVSAASTKGPSVFPLAPCSRSTSESTAALGCLVKDYFPEPVTVSWNSGALTSGVHTFPAVLQSSGLYSLSSVVTVPSSSLGTKTYTCNVDHKPSNTKVDKRVESKYGPPCPPCPAPEFLGGPSVFLFPPKPKDTLMISRTPEVTCVVVDVSQEDPEVQFNWYVDGVEVHNAKTKPREEQFNSTYRVVSVLTVLHQDWLNGKEYKCKVSNKGLPSSIEKTISKAKGQPREPQVCTLPPSQEEMTKNQVSLSCAVKGFYPSDIAVEWESNGQPENNYKTTPPVLDSDGSFFLVSRLTVDKSRWQEGNVFSCSVMHEALHNHYTQKSLSLSLG
light 1: QIVLSQSPAILSASPGEKVTMTCRASSSVSYIHWFQQKPGSSPKPWIYATSNLASGVPVRFSGSGSGTSYSLTISRVEAEDAATYYCQQWTSNPPTFGGGTKLEIKRTVAAPSVFIFPPSDEQLKSGTASVVCLLNNFYPREAKVQWKVDNALQSGNSQESVTEQDSKDSTYSLSSTLTLSKADYEKHKVYACEVTHQGLSSPVTKSFNRGEC
light 2: DIVMTQSPDSLAVSLGERATINCKSSQSLLNSRTRKNYLAWYQQKPGQPPKLLIYWASTRQSGVPDRFSGSGSGTDFTLTISSLQAEDVAVYYCTQSHTLRTFGGGTKVEIKPDIQNPDPAVYQLRDSKSSDKSVCLFTDFDSQTQVSQSKDSDVYITDKCVLDMRSMDFKSNSAVAWSQKSDFACANAFQNSIIPEDTFFPSPESS
notes: Human IgG4 S228P, knobs-into-holes; also called WBP3278 lead Ab; W3278 lead Ab
Take B1: the “Biological activity (%) (EC50 of reference/EC50 of test sample; Jurkat luciferase reporter with Raji cells), lyophilized formulation, T0” value in assay [1] stood at 114%. Also, in assay [2], the “EC50 of CD25 expression, CD4+ T cells with Raji cells” value worked out at 0.6 pM and the “EC50 of CD25 expression, CD8+ T cells with Raji cells” value is 0.8 pM. Further, in [3], the EC50 – broadly, the concentration that produces a half-maximal response – worked out at 41.7 nM and the “TOP MFI” value stood at 4080 MFI. For the same molecule, in assay [4], the “EC50 of CD69 expression, CD4+ T cells with Raji cells” value was determined as 0.2 pM and the “EC50 of CD69 expression, CD8+ T cells with Raji cells” value worked out at 0.4 pM. Also, the EC50 (read off the curve) – broadly, the midpoint of the concentration-response curve – in [5] is around 6 nM. In [6], the “EC50 of IL-2 release, CD4+ T cells with Raji cells” value came to 11.4 pM; the “EC50 of TNF-α release, CD4+ T cells with Raji cells” value is 13.5 pM; the “EC50 ratio IL-2 release/Raji cell killing” value was 22; the “EC50 ratio TNFα release/Raji cell killing” value stood at 26. For the same molecule, the “EC50 (read off the curve)” value in assay [7] was around 6 nM. Also, in [8], a half-maximal effect (EC50) was put at 2.5 nM and the “TOP MFI” value is 66700 MFI. In addition, in assay [9], the “cytotoxicity EC50, CD8+ T cells against NAMALWA cells (FACS)” value worked out at 46.8 pM; the “cytotoxicity EC50, CD8+ T cells against Raji cells (FACS)” value is 0.52 pM; the “cytotoxicity EC50, CD8+ T cells against Ramos cells (FACS)” value amounted to 1.25 pM.

B2: W3278-T3U2.F16-1.uIgG4.SP (bispecific antibody)
heavy 1: QVQLVQSGAEVKKPGSSVKVSCKASGFAFTDYYIHWVRQAPGQGLEWMGWISPGNVNTKYNENFKGRVTITADKSTSTAYMELSSLRSEDTAVYYCARDGYSLYYFDYWGQGTLVTVLEDLKNVFPPEVAVFEPSEAEISHTQKATLVCLATGFYPDHVELSWWVNGKEVHSGVCTDPQPLKEQPALQDSRYALSSRLRVSATFWQNPRNHFRCQVQFYGLSENDEWTQDRAKPVTQIVSAEAWGRYGPPCPPCPAPEFLGGPSVFLFPPKPKDTLMISRTPEVTCVVVDVSQEDPEVQFNWYVDGVEVHNAKTKPREEQFNSTYRVVSVLTVLHQDWLNGKEYKCKVSNKGLPSSIEKTISKAKGQPREPQVYTLPPCQEEMTKNQVSLWCLVKGFYPSDIAVEWESNGQPENNYKTTPPVLDSDGSFFLYSRLTVDKSRWQEGNVFSCSVMHEALHNHYTQKSLSLSLG
heavy 2: QVQLQQPGAELVKPGASVKMSCKASGYTFTSYNMHWVKQTPGRGLEWIGAIYPGNGDTSYNQKFKGKATLTADKSSSTAYMQLSSLTSEDSAVYYCARSTYYGGDWYFNVWGAGTTVTVSAASTKGPSVFPLAPCSRSTSESTAALGCLVKDYFPEPVTVSWNSGALTSGVHTFPAVLQSSGLYSLSSVVTVPSSSLGTKTYTCNVDHKPSNTKVDKRVGGGGSGGGGSQVQLQQPGAELVKPGASVKMSCKASGYTFTSYNMHWVKQTPGRGLEWIGAIYPGNGDTSYNQKFKGKATLTADKSSSTAYMQLSSLTSEDSAVYYCARSTYYGGDWYFNVWGAGTTVTVSAASTKGPSVFPLAPCSRSTSESTAALGCLVKDYFPEPVTVSWNSGALTSGVHTFPAVLQSSGLYSLSSVVTVPSSSLGTKTYTCNVDHKPSNTKVDKRVESKYGPPCPPCPAPEFLGGPSVFLFPPKPKDTLMISRTPEVTCVVVDVSQEDPEVQFNWYVDGVEVHNAKTKPREEQFNSTYRVVSVLTVLHQDWLNGKEYKCKVSNKGLPSSIEKTISKAKGQPREPQVCTLPPSQEEMTKNQVSLSCAVKGFYPSDIAVEWESNGQPENNYKTTPPVLDSDGSFFLVSRLTVDKSRWQEGNVFSCSVMHEALHNHYTQKSLSLSLG
light 1: DIVMTQSPDSLAVSLGERATINCKSSQSLLNSRTRKNYLAWYQQKPGQPPKLLIYWASTRQSGVPDRFSGSGSGTDFTLTISSLQAEDVAVYYCTQSHTLRTFGGGTKVEIKPDIQNPDPAVYQLRDSKSSDKSVCLFTDFDSQTQVSQSKDSDVYITDKCVLDMRSMDFKSNSAVAWSQKSDFACANAFQNSIIPEDTFFPSPESS
light 2: QIVLSQSPAILSASPGEKVTMTCRASSSVSYIHWFQQKPGSSPKPWIYATSNLASGVPVRFSGSGSGTSYSLTISRVEAEDAATYYCQQWTSNPPTFGGGTKLEIKRTVAAPSVFIFPPSDEQLKSGTASVVCLLNNFYPREAKVQWKVDNALQSGNSQESVTEQDSKDSTYSLSSTLTLSKADYEKHKVYACEVTHQGLSSPVTKSFNRGEC
notes: Human IgG4 S228P, knobs-into-holes; also called W3278 BsAb; WBP3278 BsAb
Take B2: the EC50 is 58.9 nM in assay [3] and above 1000 nM in assay [8]. Moreover, the “TOP MFI” value in assay [3] came to 6750 MFI; in assay [8], 55200 MFI.
